# Test: yeast display, Sf9 membrane polyspecificity reagent, FACS + sequencing; frameworks hold sequencing errors
# How it was run: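 A nanobody's polyreactivity label depends on the gate it was sorted from. Yeast display cells were stained with 10% biotinylated, detergent-solubilized Sf9 membrane reagent for 1 hour at 4 °C, enriched on streptavidin microbeads and sorted by FACS. The low and high (top ~1%) gates were set on anti-HA fluorescence for expression and streptavidin fluorescence for reagent binding.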
row,Sequence,polyreactivity (PSR sort gate)
1,QVQIVESGGGLVQAGGSLRLSCAASGFILNYYGMGWYRQAPGKERELVATISRGASTNYADSVKGRFTISRDNAKNTVYLQMISLKPEETEVYSCAKDYGDWGQGTQVTVSS,low polyreactivity
2,QVQLVESGGGLVQAGGSLRLSCAASGSNFIWYVMGWYRQAPGKEREFVAAINWRGTSTYYADSVKGRFTISRDNAKNTVYLQMNSLKPEDTAVYYCAARVTYRGRAYDYWGQGTQVTVSS,high polyreactivity
3,QVQLVESGGGLVQAGGSLRLSCAASGNIFNTYAMGWYRQAPGKERELVAVISSRCGRTYYADSVKGRFTISRENAKNTVYLQMNSLKPEDTAVYYCAAGKHVTFSYEYRMDYWGVGTQVTVSS,low polyreactivity
4,QDHLVESVGGLVQAGRSLRLTCAASGGTFYYKTMGWYRQAPGKESQLVAAITSGTSTNYADSVKGRFTISRDNAKNTVYLQMNSLKPEDTAVYYCAADPDADDPRRGYDYWGQGTQVTVSS,low polyreactivity
5,QVQLVESGGGLVQAGGSLRLSCADSGRIFYANAMGWYRQAPGKERELVAAISSGGSTYYADSVKGRFTISRDNAKNTVYLQMNSLKPEDTAVYYCAVYTHKIVRPEYDYWGQGTQVTVSA,low polyreactivity
6,QVQLVESGGGLVQAGGSLRLSCAASGFTFTKYAMGWYIQATGKERELVAAISRSGSSTYYADSVKGRFTISRDNAKNTVYLQMNSLKPEDTAVYYCAADNGYGDYYYWGQGTQVTVSS,high polyreactivity
7,QVQLVESGGGLVQAGGSLRLSCAASGSIFRSYAMGWYRQAPGKERELVASISRRGGSTYYADSVKGRFTISRDNAKNSVYLQMNSLKPEDTAVYYCAAVRYNSRVSTTPSEMYYWGQGTQVTVSS,low polyreactivity
8,QVQLVESGGGLVQAGGTLRLSCAASGSIFRYYAMGWYRQAPGKERELVASSSRRGGSTYYADSVKGRFTISRDIANITVYGQMNSLKPEDTAVYYCAAYSYVYGERYYYWGQGSQVTVSS,high polyreactivity
9,QVQLVESGGGIVQEGGSLRLSCAASGRTFGLNVMGWYRQAPGKERELVATISWSGGTTYYADSVKGRYTISRDNAKNTVYFQMKSLKPEDTGVYYCNRQVTWYPTGGYWGQGTQVTVSS,low polyreactivity
10,QVQLVESGGGLVQAGGSLRLRCAASGSTFPYNAMGWYRQAPGKERELVAAITSAVGTNYADSVKGRVTISRDNAKNTVYLQMNSLKREDTAVYYCAARYIETPLTVLSLMDYWGQGTQVTVSS,low polyreactivity
11,QVQLVESGGGLVQAGGSLRLSCAASGRTFWDYAMGWYRQAPGKEREFVAAINTSGGRTYYADSVKGRFTISRDNAKNTVYLQMNSLKPEDTAVYYCAARTRDRAYDSWGQGTQVTVSS,high polyreactivity
12,QVQLVESGGGLVQAGGSLRLSCAASGRIFSRYAMGWYRQAPGKERELVATITRRGGSTSYADSVKGRFTISRDNAKNTVYLHMNSLKPEDTAVYYCAAQSFYGIYYGQQDYDYWGQGTQVTVSS,high polyreactivity
13,QVQLVESGGGLVQAGGSLRLSCAASGLIFYDNLGWYRQAPGKERELVAAISSSGGSTSYADSVKGRFTISRDNAKNTVYLQMNSLKPEDTAVYYCAADSYPAYLGFVGFDYWGQGTQVTVSS,low polyreactivity
14,QVQLVESGGGLVQAGGSLRLSCAASGRIFAYYAMGWYRQAPGTERELVALISSTGGSTYYADSVKGRFTISRDNAKNTVYLQMNSLKPEDTAVYYCNKQVTGAERFQGHGAYYWGQGTQVTVSS,high polyreactivity
15,QVQLVESGGGLVQAGGSLRLSCAASGRTFYGYAMGWYRQAPGKERELVAAISVSGGSTYYADSVKGRFTISRDNAKNTVYLQMNSLKPEDTAVYYCATKGLFTNSPLYVSAYDYWGQGTQVTVSS,low polyreactivity
16,QVQLVESGGGLVHAGGSLRLSCAASGFIFPWYAMGWSRQAPGKERELVAIISWDTGSTYYADSVKGRFTISRDNAKNTVYLQINRLKPEDSAVYYCVAYVGSTYSAPEYYWGQGTQVTVSS,low polyreactivity
17,QGLLVQSGGGLVQAGGSLRLSCAASGFTFRFYAMLWYRQAPGNERELVAAISSTGSTNYADSVKARCTISRDNAKNTVYLQKNSLKPEDTAVYYCNTDYYNRYYDWLIWYYYWGQGTQVTVSS,high polyreactivity
18,QVQLVESGGGLVQAGGSLRLSCAASGITFTVYAMGWYRQAPGKERELVAAINSVSSTNYADSVKGRFTISRDNAKNTVYLQMNSLKPEVTAVYYCAASYRKLPDKKRYGYWGQGTKVTVSS,high polyreactivity
19,QVQLVESGGGLVQAGGSLRLSCAASGRTLKVYAMGWYRQAPGKERELVAAINNGGSTNYADSVKGRFTISRDNAKNTVYLQMNSLKPEDTAVYYCNAVYYARYRNYTYYYWGQGTQVTVSS,high polyreactivity
20,QVQLVESCGGLVQAGGSLRLSCAASGGIFGYYAMGWYRQAPGKEREFVAAITLSGGRSYYADSVKGRFTISRDNAKNTVYLQMNSLKPEDTAVYYCNAYPYYLVRNMDSWGQGTQVTVSS,high polyreactivity
21,QVQLVESGGGLVQAGGSLRLSCAASGFTFSYYAMGWYRQAPGKERELVAAITSGGRTYYADSVKGRFTISRDNAKNTVYLQMNSLKPEDTAVYYCATSSQRWFYSGNYWGQGTQVTVSS,high polyreactivity
22,QVQLVESGGGLVQAGGSLRLSCAASGSTSQINAMGWYRQAPGKERELVAAITWSGDSTYYADSVKGRFTISRDNAKNTVYLQMNSLKPEDTAVYYCAAVSRYFSTYLYDYWGQGTQVTVSS,low polyreactivity

row,Sequence,polyreactivity (PSR sort gate)
1,QVQLVESGVGLVQAGGSLRLSCAASGFIFRYYTMGWYRPAPGKERELVAVITSGGTTYYADSVKGRFTISRDNAKNTVYLHMNSLIPEDTAVYYCAADYRPRLYGVGVDYWGQGSQVTVSS,low polyreactivity
2,QVQLVESGGGLVQAGGSLRLSCAASGRTFDRNAMGWYRQAPGKERELVAAITSSGDSTYYADSVKGRFTISRDNSKNTVYLQMNSLKPEDTAVYYCAAGRRFGYWGQGTQVNVSS,high polyreactivity
3,QVQLVESGGGLVQAGGSLRLSCAASGRIFEYAMGWYRQAPGKERELVAGITRSSSTNYADSVKGRFTISRDNAKNTVYLQKNSLKPEDTAVYYCNAESRSWYLYHYDYWGQGTQVTVSS,low polyreactivity
4,QVQLVESGGGLVQAGGSLRLSCAASGSTFSAYAMGWYRQAPGKERELVATITSDGSTNYADSVKGRFTISRDNAKNTVYLQMNSLKPEDTAVYYCAAKRQYKRSRMYYWGQGTQVTVSS,high polyreactivity
5,QVQLVESGGGLVQAGGSLRLSCAASGSIFWINAMGGYRQAPGKEREVVADIDVSGGSTYYADSVKGRFTISRDNAKNTVYLQMNSLKPEDTAVYYCAADAWVRTYHYGYWGQGTQVTVSS,low polyreactivity
6,QVQLVESVGGLVQAGGSLRLSCAASGSIFYPNAMGLYRQAPGKERELVAAISSSGGTNYADSVKGRFTISRDNAKNTVYLQMNSLKPEDTAVYYCNARDKVRYRYSRMDYWGQGTQVTVSS,low polyreactivity
7,QVQLVESGGVLVQAGGSLRLSCAASGNIFYAYAMGWYRQAPGKERELVAAISWSGDSTYYADSVKGRFTISRDNAKNTVNLQMNSLKPEETAVEYCAADSYRFYSGYYYWGQGTQVTVSS,low polyreactivity
8,QVQLVESGGGLVQAGGSLRLSCAASGFTFSLYAMGWYRQAPGKEWEVVAAISSRGGTTYYADSVKGRFTISRDNAKNTVYLQMNILKAEDTAVYYCAARYVYTRSAFDYWGQGTQVTVSS,high polyreactivity
9,QVQLVESGGGLVQAGGSLRLICAASGFIFNAYAMGWYRQAPGKERELVAAISTRGSNTYYADSVKGRFTISRDNAKNTVYLQMNSLKPEDTAVYYCNRVFSYQYKRDYWGQGTQVTVSS,high polyreactivity
10,QVQLVESGGGLVQAGGSLRLSCAASGSIFSPNDMGWYRQAPGKERELVAAITSAGSTYYADSVKGRFTISRDNAKNTVYLQMNSLKPDDTAVYYCAATYISVTDYAYFPLWYGYWGQGTQVTVSS,low polyreactivity
11,QVQLVESGGGLVQAGGSLRLSCSASGSTFNVNAMGWYRQAPGKERELVAAIRTSGGSTYYADSVKGRFTISRDNAKNTVYLQMNSLKQEDTAVYYCNARVGSSSSRYYYWGQGTQVTVSS,low polyreactivity
12,QVHLVESGGGLVQAGGSLRLSCAASGSTFQSNAMGWYRQAPGKERELVATITQSGATTYYADSVKGRFTISRDNAKNTVYLQMNSLNPEDTAVYYCNVDTYQKRWFWLDLDGGYWGQGTQVTVSS,low polyreactivity
13,QVQLVESGAGLVQAGGSLRLSCAASGITFAYYAMGWYRQAPGKERELVAAIRGGTNTYYADSVKGSYTISRDNAKNTVYFLMNSLKPEDTAVYYCAARRSSHWFTYDYWGQGTLVTVSS,high polyreactivity
14,QVQLVESGGGLVQAGGSLRLSCAASGNTFYPYAMGWYRQAPGKERELVATIRGSDDSTYYADSVKGRFTISRDNAKNTVYLQMNSLKPEDTAVYDCAADDVVSTFLRGYVRYDYWGQGTQVTVSS,high polyreactivity
15,QVQLVESGGGLVQAGGSLRLSCADSGITFYGSAMGWYRQAPGQERELVAAISKSGGSTHYADSVKGRFTISRDNAKNTVYLQMNSLKPEDTAVYYCAAAYWTRLRRMDYWGQGTQVTVSS,low polyreactivity
16,QVQLVESGGGLVQAGGSLRLSCAASGSIFYVNAMGWYRQAPGKERELVAAISYRGGSTYYADSVKGRFTISRDNAKNTVYLQMNSLKPEDTAVYYCAARGYYRPSQTTGRIKYDYWGQGTQVTVSS,high polyreactivity
17,QVQLVESGGGLVQAGGSLRLSCAASGRTFQDYALGWSRQAPGKEREFVADISDGGSTNYADSVKGRFTISRDNAKNTVYLQMNSLKPEVTAVYYCAADQYHGVGINFRSDYDYWGHGTQVTVSS,low polyreactivity
18,QVQLVESGGGLVQAGGSLRLSCAASGFIFSDYAMGWYRQAPGKERELVAGISDSGGDTYYADSVKGRFTISRDNAKYTVYFQMYSLKPDDTAVYYCAADVELWVFRGQQYDYWGQGTQVTVSS,low polyreactivity
19,QVQLVESGGGLVQAGGSLRLSCAASGITFFAYAMGWYRQPPGKERELVAAISSGGSTNYADSVKGRFTISRDNAKNTVYLQMNSLKPEDTAVYYCAAVRSDLGEEGYAGYVYWGQGTQVTVSS,low polyreactivity
20,QVQLVESGGGLVQAGGSLRLSCAASGSIFWYNTMGWYRQAPGKERELVAAISYRGGRTYYADSVKGRFTISRDNAKNTVYLQMNSLKPEDTAVYYCNAPRYLGGGQDALGDYWGQGTQVTVSS,high polyreactivity
21,QVQLEESRGGLVQAGGSLRLSSADSGSTFDYYAKGWYRQAPGKERELVAAITSTGRTYYADSVKGRFTISRDNAKNTVYLQMNSLKPEDTAVYYCAADLPWGPLFDYWGQGTQVTVSS,low polyreactivity
